In the supplement of paper PMC6757056:
± gives the standard deviation of the averaged measurements.

B1: library; a variant is named by its letters at N, in order (parent)
chain: GCUGUCACCGGAAUACCAGCAUCGUCUUGAUGCCCUUGGAAGUCCGGUCUGAUGAGUCCNNNNNGGACGAAACAGC

How the values were obtained:
theophylline [1] = variants of: B1; experiment: FACS-Seq fitted mean relative fluorescence mCherry/BFP without ligand (log10 relative fluorescence); higher = higher reporter protein expression; conditions: HEK293T, ligand present: no
Procedure, shortened: (§1)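 Fluorescence values are fitted normal means of bin counts along the mCherry/BFP axis. HEK293T libraries lentivirally carrying the ribozyme switch in an mCherry reporter, with an EF1α-BFP marker, were enriched, exposed to ligand or not for 48 h, and sorted into 6 bins. Genomic DNA per bin was PCR-amplified, barcoded and run on MiSeq. Means of log10(mCherry/BFP) were scaled to five spiked-in control ribozymes.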

theophylline [2] = variants of: B1; experiment: normalized RNA/DNA level with ligand (relative to sTRSVctl = 100) (log10 (% of sTRSVctl)); higher = less ribozyme self-cleavage, higher mRNA level; conditions: ligand concentration (+) RNA-Seq: 5 mM, HEK293T, reporter: mCherry (pCS4076), ligand present: yes
Procedure, shortened: (§2)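 Library plasmids carrying ribozyme switches linked to mCherry, or to eGFP in some ligand experiments, were transfected into HEK293T at 4 µg per 6-well well, with any ligand added 1 h earlier. Seventy-two hours on, total RNA was extracted with EDTA and reverse-transcribed, amplified, barcoded and sequenced. RNA level was RNA over DNA reads normalized to a spiked-in non-cleaving sequence or to the top sequences, then scaled and log-transformed. The top set was 25 sequences, the transform was ×100 and log10, and sequences needed ≥100 DNA reads.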

theophylline [3] = variants of: B1; experiment: normalized RNA/DNA level without ligand (relative to sTRSVctl = 100) (log10 (% of sTRSVctl)); higher = less ribozyme self-cleavage, higher mRNA level; conditions: HEK293T, reporter: mCherry (pCS4076), ligand present: no
Procedure, shortened: as §2

theophylline [4] = variants of: B1; experiment: FACS-Seq fitted mean relative fluorescence mCherry/BFP with ligand (log10 relative fluorescence); ligand concentration (+) FACS-Seq: 1 mM; higher = higher reporter protein expression; conditions: HEK293T, ligand present: yes
Procedure, shortened: as §1

| Variant | FACS-Seq fitted mean (log10) (theophylline [1]) | normalized RNA/DNA level with ligand (log10) (theophylline [2]) | normalized RNA/DNA level without ligand (log10) (theophylline [3]) | FACS-Seq fitted mean (log10) (theophylline [4]) |
| --- | --- | --- | --- | --- |
| GCUGUCACCGGAAUACCAGCAUCGUCUUGAUGCCCUUGGAAGUCCGGUCUGAUGAGUCCCGCGAGGACGAAACAGC [CGCGA] | 0.995 ± 0.15 | 1.97 ± 0.12 | 1.767 ± 0.014 | 0.923 ± 0.055 |
| GCUGUCACCGGAAUACCAGCAUCGUCUUGAUGCCCUUGGAAGUCCGGUCUGAUGAGUCCAGCCGGGACGAAACAGC [AGCCG] | 0.757 ± 0.026 | 1.99 ± 0.14 | 1.93 ± 0.11 | 0.782 ± 0.054 |
| GCUGUCACCGGAAUACCAGCAUCGUCUUGAUGCCCUUGGAAGUCCGGUCUGAUGAGUCCAGCCUGGACGAAACAGC [AGCCU] | 0.951 ± 0.011 | 1.98 ± 0.023 | 1.91 ± 0.11 | 1.06 ± 0.071 |
| GCUGUCACCGGAAUACCAGCAUCGUCUUGAUGCCCUUGGAAGUCCGGUCUGAUGAGUCCAGCCAGGACGAAACAGC [AGCCA] | 0.758 ± 0.027 | 1.98 ± 0.038 | 1.857 ± 0.0057 | 0.919 ± 0.027 |
| GCUGUCACCGGAAUACCAGCAUCGUCUUGAUGCCCUUGGAAGUCCGGUCUGAUGAGUCCCGCAUGGACGAAACAGC [CGCAU] | 0.678 ± 0.078 | 1.99 ± 0.018 | 1.68 ± 0.14 | 0.776 ± 0.017 |
| GCUGUCACCGGAAUACCAGCAUCGUCUUGAUGCCCUUGGAAGUCCGGUCUGAUGAGUCCAGCGCGGACGAAACAGC [AGCGC] | 0.459 ± 0.1 | 2.058 ± 0.016 | 1.98 ± 0.047 | 0.52 ± 0.18 |
| GCUGUCACCGGAAUACCAGCAUCGUCUUGAUGCCCUUGGAAGUCCGGUCUGAUGAGUCCAGCGAGGACGAAACAGC [AGCGA] | 0.281 ± 0.033 | 1.99 ± 0.025 | 1.68 ± 0.058 | 0.503 ± 0.017 |
| GCUGUCACCGGAAUACCAGCAUCGUCUUGAUGCCCUUGGAAGUCCGGUCUGAUGAGUCCUGCGAGGACGAAACAGC [UGCGA] | 0.439 ± 0.02 | 1.9 ± 0.039 | 1.58 ± 0.06 | 0.659 ± 0.03 |
| GCUGUCACCGGAAUACCAGCAUCGUCUUGAUGCCCUUGGAAGUCCGGUCUGAUGAGUCCUGCGCGGACGAAACAGC [UGCGC] | 0.574 ± 0.085 | 2.04 ± 0.035 | 1.96 ± 0.15 | 0.522 ± 0.1 |
| GCUGUCACCGGAAUACCAGCAUCGUCUUGAUGCCCUUGGAAGUCCGGUCUGAUGAGUCCCGCCCGGACGAAACAGC [CGCCC] | 0.615 ± 0.021 | 2.01 ± 0.14 | 2.02 ± 0.04 | 0.725 ± 0.098 |
| GCUGUCACCGGAAUACCAGCAUCGUCUUGAUGCCCUUGGAAGUCCGGUCUGAUGAGUCCCGCCUGGACGAAACAGC [CGCCU] | 0.291 ± 0.031 | 2.08 ± 0.074 | 1.78 ± 0.12 | 0.38 ± 0.021 |
| GCUGUCACCGGAAUACCAGCAUCGUCUUGAUGCCCUUGGAAGUCCGGUCUGAUGAGUCCUGCCGGGACGAAACAGC [UGCCG] | 1.06 ± 0.058 | 2.04 ± 0.043 | 2.02 ± 0.055 | 0.883 ± 0.027 |
| GCUGUCACCGGAAUACCAGCAUCGUCUUGAUGCCCUUGGAAGUCCGGUCUGAUGAGUCCUGCCAGGACGAAACAGC [UGCCA] | 0.592 ± 0.11 | 1.9 ± 0.096 | 1.82 ± 0.068 | 0.481 ± 0.044 |
| GCUGUCACCGGAAUACCAGCAUCGUCUUGAUGCCCUUGGAAGUCCGGUCUGAUGAGUCCUGCCUGGACGAAACAGC [UGCCU] | 0.875 ± 0.16 | 2.08 ± 0.077 | 1.891 ± 0.007 | 0.867 ± 0.079 |
| GCUGUCACCGGAAUACCAGCAUCGUCUUGAUGCCCUUGGAAGUCCGGUCUGAUGAGUCCUGCCCGGACGAAACAGC [UGCCC] | 0.979 ± 0.077 | 2.01 ± 0.026 | 2.03 ± 0.043 | 0.875 ± 0.012 |
| GCUGUCACCGGAAUACCAGCAUCGUCUUGAUGCCCUUGGAAGUCCGGUCUGAUGAGUCCUGCACGGACGAAACAGC [UGCAC] | 0.938 ± 0.039 | 2.04 ± 0.11 | 2.01 ± 0.022 | 0.991 ± 0.051 |
| GCUGUCACCGGAAUACCAGCAUCGUCUUGAUGCCCUUGGAAGUCCGGUCUGAUGAGUCCUGCAUGGACGAAACAGC [UGCAU] | 1.25 ± 0.16 | 1.92 ± 0.078 | 1.853 ± 0.018 | 1.3 ± 0.1 |
| GCUGUCACCGGAAUACCAGCAUCGUCUUGAUGCCCUUGGAAGUCCGGUCUGAUGAGUCCAGCAGGGACGAAACAGC [AGCAG] | 0.801 ± 0.041 | 2.03 ± 0.12 | 1.81 ± 0.027 | 0.944 ± 0.048 |
